Values of other authors in publication PMC8965884, “Synthesis and Characterization of Phenylboronic Acid-Modified Insulin With Glucose-Dependent Solubility” (Frontiers in Chemistry, 2022).

Text: Insulin glargine, marketed as Lantus®, is a long-acting insulin analog with a 24-h dosing regimen. The additional 2 arginine residues on the C-terminus of the B chain increases its isoelectric point (pI) 6.7, which lowers its solubility at physiological pH and leads to precipitation at the subcutaneous injection site ([Kohn et al., 2007]). Glargine is then released slowly from the precipitate into the bloodstream to establish the long-acting property.

| Compound | isoelectric point (pI) (ref Kohn et al., 2007) | pKa (non-substituted PBA, ref Yan et al., 2004) |
| --- | --- | --- |
| Insulin glargine | 6.7 |  |
| OB(O)c1ccccc1 [PBA, phenylboronic acids] |  | 8.8 |
